Changes are numbered by the printed parent chain. Each block holds one molecule with its values, some of them ahead of it.
What was measured:
[1] = target: T1, recombinant human interleukin-5 (human, UniProt P05113 20-134); assay: competition ELISA on plates coated with human IL-5; competitor biotinylated JES1-39D10
T1 sequence (looked up): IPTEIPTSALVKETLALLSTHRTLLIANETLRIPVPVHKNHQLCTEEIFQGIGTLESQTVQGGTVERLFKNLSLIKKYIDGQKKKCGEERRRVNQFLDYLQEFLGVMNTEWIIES
Procedure: Competition assays were carried out in which binding of the biotinylated antibody to plates coated with human IL-5 was measured in the presence of unlabelled antibody JES1-39D10 or antibody CMx5-1, CMX5-2 or CMX5-5, each of which had been purified by protein A/G affinity chromatography.
EIA plates were treated with 0.1 M NaHCO_3, pH 9.2, for 1 hour at room temperature. Human IL-5 in TBS was then added at […]. The plates were incubated overnight at 4° C. and then blocked with 3% BSA-TBS ml for 1 hour at room temperature. Fifty microliters of 2-fold serially diluted competing antibodies plus the appropriate amount of biotinylated antibody JES1-39D10 (also in a 50 μl volume) were added to each well, and the plates were incubated for 1 hour at room temperature.
The plates were then washed 5 times with TBS-Tween-20, incubated with 1 μg/ml horseradish peroxidase (HRP)-streptavidin conjugate for 1 hour at room temperature, washed 5 times with TBS-Tween-20, and developed with HRP substrate TMB. Absorbance of the samples was then measured spectrophotometrically at 450 nm.

[2] = target: T1, recombinant human interleukin-5; assay: inhibition of binding of 0.5 nM radiolabeled human IL-5 to IL-5 receptor alpha chains on transfected COS cells
[3] = target: T1, recombinant human interleukin-5; assay: cell-based or functional assay
[4] = target: T1, recombinant human interleukin-5; assay: captured antibody on plate, 125I-IL-5 binding, Scatchard analysis
Procedure: To determine whether the humanized antibodies retained the ability to specifically bind to human IL-5, apparent dissociation constants of antibody/antigen complexes were measured. This was done by coating enzyme immunoassay plates with mouse anti-human IgG_4-Fc (5 µg per ml, 100 ill per well) in 50 mM bicarbonate buffer, pH 9.5. The plates were then blocked at room temperature for 90 minutes with BLOTTO, washed 3 times, and incubated at 37° C. for 2 hours with one of the humanized antibodies, either purified (100 µl per well with a final concentration of 0.05 µg per ml) or in the form of conditioned medium (100 µl per well).
After the plates were washed 3 times, a dilution series of ^125I-labeled human IL-5 at concentrations between 4,000 pM and 2 pM was applied to the wells in each plate in final volumes of 100 µl. All test wells were run in triplicate. Background binding was determined by using a 1000-fold molar excess of unlablled human IL-5 in control wells. The reactions were allowed to equilibrate at room temperature for 2 hours, at which time the wells were aspirated and washed 5 times with TBST. The wells were then separated and counted in a Pharmacia LKB γ-counter. All nonspecific binding controls were run in duplicate. The values obtained for bound human IL-5 were subjected to Scatchard analysis (using RADLIG software) to obtain dissociation constant (kd) values.

Molecule: monoclonal antibody JES1-39D10
molar ratio to biotinylated JES1-39D10 needed to produce the same degree of binding inhibition [1]: 1 molar ratio | IC50 [2]: 0.15 to 0.55 nM | IC50 (pM), inhibition of IL-5-induced CD11b expression on HL-60 cells [3]: 166 pM | IC50 CMX5/IC50 39D10, inhibition of IL-5-induced CD11b expression on HL-60 cells (fold against 39D10) [3]: 1 | MOLAR RATIO CMX5/IL-5, inhibition of IL-5-induced CD11b expression on HL-60 cells (molar ratio antibody:IL-5) [3]: 0.83

B1: humanized antibody CMX5-2 (antibody, V domains shown)
VH: QVKLVQAGGGVVQPGRSLRLSCIASGFTFSSNSVNWIRQAPGKGLEWVALIWSNGDTDYNSAIKSRFTISRDNSKSTLYMQMNSLRTEDTAVYFCAREYYGYFDYWGQGVLVTVSS
VL: DIQMTQSPSSLSVSVGDRVTITCLASEGISSYLAWYQQKPGLAPKLLIYGANSLQTGVPSRFSGSGSATDFTLTISSLQPEDIATYYCQQSYKFPNTFGQGTKVDVKR
molar ratio to biotinylated JES1-39D10 needed to produce the same degree of binding inhibition [1]: ~1.4 molar ratio | IC50 [2]: 0.35 to 0.7 nM | IC50 (pM), inhibition of IL-5-induced CD11b expression on HL-60 cells [3]: 467 pM | IC50 CMX5/IC50 39D10, inhibition of IL-5-induced CD11b expression on HL-60 cells [3]: 2.8 fold against 39D10 | MOLAR RATIO CMX5/IL-5, inhibition of IL-5-induced CD11b expression on HL-60 cells [3]: 2.3 molar ratio antibody:IL-5

B2: humanized antibody CMX5-3 (antibody, V domains shown)
VH: EVQLLESGGGLVQPGGSLRLSCAVSGLSLTSNSVNWIRQAPGKGLEWVALIWSNGDTDYNSAIKSRFTISRNDSKNTLYLQMNGLQAEVSAIYFCAREYYGYFDYWGQGTLVTVSS
VL: B1 VL
notes: VH LAY maximal, VL LAY maximal
binding result [4]: binds

B3: humanized antibody CMX5-4 (antibody, V domains shown)
VH: QVKLVQAGGGVVQPGRSLRLSCIASGLSLTSNGMHWVRQAPGKGLEWVAVIWSNGSRTYYGDSVKGRFTISRDNSKRTLYMQMNSLRTEDTAVYYCAREYYGYFDYWGQGVLVTVSS
VL: B1 VL with L24Q, A34N, S53T, L54R, Q55E, T56A, A68G
notes: VH HIL minimal, VL LAY minimal
binding result [4]: no binding

The remaining lines, values ahead:

molar ratio to biotinylated JES1-39D10 needed to produce the same degree of binding inhibition [1]: ~3.3 molar ratio | IC50 [2]: 1.5 to 3 nM | IC50 (pM), inhibition of IL-5-induced CD11b expression on HL-60 cells [3]: 1470 pM | IC50 CMX5/IC50 39D10, inhibition of IL-5-induced CD11b expression on HL-60 cells [3]: 8.8 fold against 39D10 | MOLAR RATIO CMX5/IL-5, inhibition of IL-5-induced CD11b expression on HL-60 cells [3]: 7.3 molar ratio antibody:IL-5
B4: humanized antibody CMX5-1 (antibody, V domains shown)
VH: B1 VH with A24V, F27L, T28S, F29L, S30T
VL: B1 VL with K45L
notes: VH HIL maximal, VL LAY maximal; also called CMX1; antibody from clone CJA25

molar ratio to biotinylated JES1-39D10 needed to produce the same degree of binding inhibition [1]: ~1.4 molar ratio | IC50 [2]: 0.5 to 1.1 nM | IC50 (pM), inhibition of IL-5-induced CD11b expression on HL-60 cells [3]: 800 pM | IC50 CMX5/IC50 39D10, inhibition of IL-5-induced CD11b expression on HL-60 cells [3]: 4.8 fold against 39D10 | MOLAR RATIO CMX5/IL-5, inhibition of IL-5-induced CD11b expression on HL-60 cells [3]: 4 molar ratio antibody:IL-5
B5: humanized antibody CMX5-5 (antibody, V domains shown)
VH: B1 VH with I37V, S76R, F94Y
VL: B1 VL with A68G, L73F
notes: Kabat CDRs only on HIL VH and LAY VL

Source: patent US6451982 (SCHERING, dated 2002)
